B1: NTSp27-7.4: NTS neutralizing monoclonal antibody from hybridoma clone 7.4; VH SEQ ID NO:1, VL SEQ ID NO:5 (antibody, V domains shown)
VH: DVKLVESGGGLVKLGGSLKLSCAASGFTFSGYYMSWVRQTPEKRLELVAAINNYGDNTNYPDTVKGRFSVSRDNAKNTLYLEMNSLKSEDTALYYCARLANYANQRGAMDYWGQGTSVTVSS
VL: DIQMTHTTSSLSASLGDRVTISCRASQDIANYLNWYQQKPDGTVTLLIYYTSRLHSGVPSRFSGSGSGTDYSLTINNLDQEDIATYFCQQGYTLPPTFGGGTKLEIK
modifications: Synthetic VH sequence; Synthetic VL sequence

How the values were obtained:
[1] = test system: A2780 cells; test: A2780 ovarian cancer tumor xenograft, cisplatin response; type: in vivo, NMRI-Nude Foxn1 mice
Method: FIG. 8. […] 3 million A2780 cells were injected into mice. When tumors generated by A2780 reached an average volume of 200 mm^3, mice were randomized into 4 groups. Mice were treated with PBS, or 15 mg/kg NTSp27-7.4 every other day and/or with cisplatin 1 mg/kg day at 1, 3, 5, and 7 days. Results are the mean of 8 to 12 mice performed in two different independent experiments.
A2780 cells (3×10^6) cells were combined with […] and 50 μl […]® (a gelatinous protein mixture), then injected subcutaneously into the right hind leg of 4 week old female NMRI-Nude Foxn1 mice. Treatment started when tumors reached approximately 200 mm3. Tumor volume was calculated every two days by using the following equation: tumor volume (mm3)=4/3×π×(length/2)×(width/2)×(height/2). After treatment, the mice were sacrificed and tumors were fixed in formalin.

[2] = test system: LNM-R cells; test: cisplatin test, LNM-R tumor xenograft; type: in vivo, NMRI nu/nu mice; conditions: for day the experiment was stopped because of the large size of the tumors: control group stopped after 21
Method: (§1) FIG. 6. […] A) LNM-R or R-SI NTSR1 cells (LNM-R expressing sh-RNA for NTSR1) were injected into the left and the right flanks of the mice, respectively; Mice were treated with PBS, or 15 mg/kg NTSp27-7.4 every other day and/or with cisplatin 1 mg/kg day 1, 3, 5, 7, 15, 17, and 19. At day one, 9 and 8 mice were randomized for the size of the LNM-R tumors; reaching approximately 95 mm3 on average. Mice were treated every other day and measured every day. B) Tumor growth rate from day one generated by R-SI NTSR1 cells (right flank).
(§2) Cisplatin test, 1×10^6 LNM-R cells and 1×10^6R-SI NTSR1 were subcutaneously inoculated in NMRI nu/nu mice, LNM-R in the left flank and R-SI NTSR1 in the right flank. When tumors generated by LNM-R reached an average volume of 95 mm^3, mice were randomized in 5 groups of 8 to 10 mice. Group 1 was administered with PBS, group 2 with antibody NTSp27-7.4 (i.p. every other day, 15 mg/kg) for total of 13 times and group 3 with mouse IgG (i.p. every other day, 15 mg/kg). Group 4 was administered with PBS and cisplatin (1 mg/kg at day 1,3 5 7, 15, 17, and 19) and groups 5 with antibody NTSp27-7.4 (i.p. every other day, 15 mg/kg) and cisplatin (1 mg/kg at day 1,3 5 7, 15, 17, and 19). The volume of tumor was measured every other day.

[3] = test system: R-SI NTSR1 cells; test: cisplatin test, R-SI NTSR1 tumor xenograft; type: in vivo, NMRI nu/nu mice
Method: as §1, §2

[4] = test system: LNM-R cells; test: LNM-R lung cancer tumor xenograft; type: in vivo, NMRI nu/nu mice; conditions: 15 mg/kg i.p. every other day
Method: (§3) FIG. 4. NTSp27-7.4 inhibits experimental tumor growth generated by lung cancer cell lines. A) LNM-R or R-SI NTSR1 cells (LNM-R expressing sh-RNA for NTSR1) were injected into the left and the right flank of the mice, respectively. Here is shown an example of a mouse from each group after 15 days of treatment. B) Tumor growth generated by LNM-R cells (left flank) xenografted into nude mice and treated for 15 days with PBS, or 15 mg/kg NTSp27-7.4. At day one, 10, and 8 mice were randomized on LNM-R tumors size reaching approximately 40 mm3 for control and NTSp27-7.4 group, respectively. Mice were treated every other day and measured every day. C) Tumor growth generated by R-SI NTSR1 cells (right flank) xenografted into the same mice. D and E) Tumor growth rate from day one generated by LNM-R cells (left flank) and R-SI NTSR1 cells (right flank).
(§4) 1×10^6 LNM-R cells and 1×10^6R-SI NTSR1 were subcutaneously inoculated in NMRI nu/nu mice, LNM-R in the left flank and R-SI NTSR1 in the right flank. When tumors generated by LNM-R reached an average volume of 40 mm^3, mice were randomized in 2 groups, then administered antibody NTSpP27-7.4 (i.p. every other day, 15 mg/kg) for total 8 times. PBS was used as the vehicle control. The volume of tumor was measured daily.

[5] = test system: Hep 3B, HepR1a, and HepR2b cells; test: collagen type 1 invasion assay of hepatocellular carcinoma cells; type: cell-based; conditions: Hep-R1a and Hep-R1b; 3.75 μg/ml purified antibody
Method: FIG. 3. […] A) Migration in a collagen 1 invasion assay of Hep 3B, HepR1a, and HepR2b cells. Results represent the mean±SEM of 3 experiments. Results are expressed as a % on invasive cells of control cells, Hep3B. […] B) Migration in a collagen type 1 invasion assay of Hep 3B, HepR1a, and HepR2b cells in a presence of 3.75 μg/ml of purified NTSp27-7.4 or mouse IgG. Results represent the mean±SEM of 3 experiments. Results are expressed as a % on invasive cells of respective control cells.
(§5) The cell culture insert (8 μm, Beckton Dickinson®) was coated with type I collagen (100 μl/well, 4×10^2 μg/ml, Sigma®) at 37° C. 24 h before the assay. 1 million MCF, NTS-h, Hep 3B, HepR1a, and HepR2b cells were seeded in the insert with 250 μl of serum free medium in presence or absence of 7 μg antibodies NTSp27-7.4. Outside the insert, 750 μl medium with 10% FCS was added in the well as chemoattractant. After 48 h of incubation, the non-invading cells and collagen are removed from the upper surface of the membrane by scrubbing with a cotton swab. Invading cells (those adhering to the bottom surface of the membrane) were fixed and stained with the Kwif diff stain kit(Thermo®) and the number of stained cells were counted with an inverted microscope at 200× magnification.

[6] = test system: R-SI NTSR1 cells; test: R-SI NTSR1 tumor xenograft (same mice, right flank); type: in vivo, NMRI nu/nu mice; conditions: non-expressing NTSR1 tumors, 15 mg/kg
Method: as §3, §4

[7] = test system: MCF-7 cell overexpressing NTS; test: invasion test on type I collagen of MCF-7 cells overexpressing NTS (NTS-h); type: cell-based; conditions: NTS-overexpressing clones vs MCF-7; EGF 100 ng/mL; 7 μg antibody
Method: The experiment was repeated twice.
as §5

[8] = test system: MDA si2 cells; test: MDA Si2 tumor xenograft (same mice, right flank); type: in vivo, NMRI nu/nu mice; conditions: MDA Si2 tumors (NTSR1-)
Method: (§6) FIG. 5. NTSp27-7.4 inhibits experimental tumor growth generated by breast cancer cell lines. Tumor growth generated by MDA-MB 231 cells (left flank) (A), and MDA Si2 cells (right flank) (B), and treated for 24 days with PBS, or 15 mg/kg […]. At day one, 7, and 6 mice were randomized for the size of MDA-MB231 tumors size; reaching approximately 50 mm3. Mice were treated and measured every other day.
(§7) 3×10^6 MDA-MB 231 cells and 3×10^6 MDA si2 were subcutaneously inoculated in 100 μl of […]® (a gelatinous protein mixture) the left flank and the right flank of the NMRI nu/nu mice, respectively. When tumors generated by MDA reached an average volume of 50 mm^3, mice were randomized in 2 groups, then administered antibody NTSpP27-7.4 (i.p. every other day, 15 mg/kg) for total 12 times. PBS was used as the vehicle control.

[9] = test system: MDA-MB 231 cells; test: MDA-MB 231 breast cancer tumor xenograft; type: in vivo, NMRI nu/nu mice; conditions: 15 mg/kg i.p. every other day
Method: as §6, §7

Molecule | A2780 tumor growth rates as compared to PBS treated mice ([1]; cisplatin 1 mg/kg at 1, 3, 5, and 7 days) | LNM-R tumor growth rate as compared to PBS treated mice ([2]; cisplatin 1 mg/kg day 1,3,5,7,15,17,19, IgG 15 mg/kg every other day) | day the experiment was stopped because of the large size of the tumors [2] [days] | R-SI NTSR1 tumor size ([3]; cisplatin 1 mg/kg, growth ratio to D1) | A2780 tumor size ([1]; antibody 15 mg/kg every other day, with or without cisplatin 1 mg/kg, PBS 2062±371.5, p=0.054 vs PBS, p=0.0058 vs cisplatin) [mm^3] | LNM-R tumor size ([2]; antibody 15 mg/kg every other day, with or without cisplatin 1 mg/kg) | R-SI NTSR1 tumor growth rate ([3]; combined treatment of NTSp27-7.4 with cisplatin) | tumor size smaller as compared to controls ([4]; 15 days, vs PBS) [times] | tumor growth from D1 ([4]; PBS 24.68±4.05) [fold] | tumor doubling time after 16 days of treatment ([4]; control 3.43±0.34) [days] | invasive rate of the cells expressing NTS and NTSR1 [5] | size of the tumor and growth rate vs PBS [6] | induction of invasiveness induced or not by EGF [7] | tumor sizes, growth rate and doubling time vs PBS [8] | MDA-MB231 tumor growth as compared to PBS treated animals ([9]; 24 days) | tumor growth rate from D1 ([9]; PBS 4.4±0.33) [fold] | tumor doubling time after 24 days of treatment ([9]; control 11.63±1) [days]
N.N.[Cl][Pt][Cl] [cisplatin, reference compound] | slightly but not significantly altered | not altered | 23 | decreased |  |  |  |  |  |  |  |  |  |  |  |  | 
B1 |  |  | 25 |  | 1280±262.0 | smaller | do not change | 2.6 | 8.22±1.84 | 5.11 ± 0.38 | reduced | not different | inhibited | no difference | strong reduction | 1.5±0.1 | 52.8 ± 17.6

— US10077303B2, “Anti-neurotensin antibodies and uses thereof” (INSERM (INSTITUT NATIONAL DE LA SANTÉ ET DE LA RECHERCHE …, priority 2014, dated 2018)
